A short description of test [1]: Cleavage of cholesterol oleate, 100 kDa enzyme compared with 52 kDa triglyceride lipase. It is filed as biochemical, human. The source says: (§1) Human pancreatic cholesterol esterase (100 kDa) and human pancreatic triglyceride lipase (52 kDa) were purified to homogeneity (Examples 1 and 3), and their abilities to cleave triglycerides and cholesteryl esters were compared. […] Virtually the same results were found with cholesteryl esters; the 100 kDa enzyme cleaved cholesterol oleate at a rate at least 490-fold greater than that found for the 52 kDa triglyceride lipase.

The subject of test [2] is human pancreatic cholesterol esterase. Put plainly: Binding of 125I-cholesterol esterase to small intestine vesicles and its displacement. To be noted: in the presence of 5 mM taurocholate. Here is the method: (§2) Vesicles contained 1.0 mg protein/ml, 30 ug total cholesterol/mg protein and 50 ug endogenous heparin/mg protein. ^125 I-cholesterol esterase (100K or 67K form) was added (0 to 400 pmol; 2,000 dpm/pmol) to 100 ug of protein of small intestine vesicles in 10 mM Tris-Cl, pH 7.2 for 15 min. at 37°. The concentration of offered ^125 I-cholesterol esterase varied between 10 nM and 1 uM. Experiments were performed utilizing 1% blotto to decrease nonspecific protein binding to the vesicles. After the 15 minute incubation at 37°, the reaction was quenched and the assay mixtures were filtered through wells of a Millipore system containing 0.2 micron pore filters presoaked in buffer. The filtrate was-collected to assess free (unbound) enzyme, and the filters were then immediately washed with 15 ml of cold buffer and counted for ^125 I. Total binding was defined as ^125 I-dpm bound to filter paper minus ^125 I-dpm detected in the same reaction without vesicles (background). Nonspecific binding (radioactivity bound to the vesicles in the presence of excess cold ligand) was quantitated as the amount of ^125 I-cholesterol esterase binding in the presence of a 1000-fold molar excess of unlabeled cholesterol esterase as described above. Specific binding is defined as the difference between total bound dpm and nonspecific-bound dpm (converted to moles bound by dividing by the SRA).

Test [3] concerns the target T1, human pancreatic cholesterol esterase (Homo sapiens, UniProt P19835).
T1 construct: from tissue; host or cells: human pancreas (autopsy)
T1 sequence (P19835 21-753): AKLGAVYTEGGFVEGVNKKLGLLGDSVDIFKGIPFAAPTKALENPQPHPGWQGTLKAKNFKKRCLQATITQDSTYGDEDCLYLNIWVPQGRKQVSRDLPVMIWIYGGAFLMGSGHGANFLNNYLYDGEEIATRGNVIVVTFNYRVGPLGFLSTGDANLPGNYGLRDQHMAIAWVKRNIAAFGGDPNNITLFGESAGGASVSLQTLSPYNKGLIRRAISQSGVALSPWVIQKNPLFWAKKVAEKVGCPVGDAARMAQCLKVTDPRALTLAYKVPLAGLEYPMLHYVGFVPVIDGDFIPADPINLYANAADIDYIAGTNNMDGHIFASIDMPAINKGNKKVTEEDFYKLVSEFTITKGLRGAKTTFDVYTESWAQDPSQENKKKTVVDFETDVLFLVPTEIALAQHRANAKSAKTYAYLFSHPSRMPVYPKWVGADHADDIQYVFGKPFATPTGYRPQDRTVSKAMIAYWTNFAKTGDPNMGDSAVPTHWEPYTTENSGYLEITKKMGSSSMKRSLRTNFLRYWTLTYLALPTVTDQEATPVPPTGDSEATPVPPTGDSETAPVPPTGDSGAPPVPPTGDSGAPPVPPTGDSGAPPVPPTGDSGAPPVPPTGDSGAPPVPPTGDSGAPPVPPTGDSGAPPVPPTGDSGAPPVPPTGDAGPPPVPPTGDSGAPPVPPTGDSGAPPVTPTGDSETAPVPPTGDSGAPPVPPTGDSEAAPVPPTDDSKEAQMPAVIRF
Described as above. To be noted: specific binding, 15 min at 37°, 10 mM Tris-Cl pH 7.2; read-out: KD of cholesterol esterase binding to small intestine vesicles (Scatchard analysis). Here is the method: as §2

Test [4] has as its system intestinal cells (colonic adenocarcinoma cells CaCo-2). Put plainly: Cellular uptake of 3H-cholesterol from 3H-cholesterol oleate. The class given is cell-based. To be noted: 5 nM human pancreatic cholesterol esterase (100 K), 1.5 mM taurocholate, no heparin. Here is the method: For example, intestinal cells (colonic adenocarcinoma cells CaCo-2, American Type Cell Culture) were grown in T150 flasks in medium consisting of DME, 10% v/v fetal bovine serum, 50 ug/ml gentamicin and 2 mM sodium pyruvate. Uptake experiments were conducted using 10^5 intestinal cells in PBS buffer containing 5 mM CaCl2, pH 7.4 in the presence of 5 uM ^3 H-cholesterol oleate (SRA=50 dpm/pmol) embedded in phosphatidylcholine vesicles along with 10% v/v lipoprotein-depleted serum and 1.5 mM taurocholate. At time zero, 5 nM human pancreatic cholesterol esterase (100 K, homogeneous) was added to one set of flasks, an equivalent volume of buffer to another set, and 1 mg/ml final concentration bulk heparin together with 5 nM enzyme to a third set. At selected times, i.e., 0, 15, 30, 60, 120 and 480 min, medium was removed and the cells were washed with medium to allow quantitation of ^3 H-cholesterol uptake. In the absence of enzyme, cellular uptake of ^3 H-cholesterol was linear and occurred at a rate of 400 dpm/hr/10^5 cells. In the presence of cholesterol esterase, the rate of ^3 H-cholesterol uptake was 1,800 dpm/hr/10^5 cells.

Test [5] concerns the target T2, human pancreatic cholesterol esterase (100 kDa) (Homo sapiens, UniProt P19835).
T2 construct: from tissue; host or cells: human pancreas (autopsy)
T2 sequence (P19835 21-753): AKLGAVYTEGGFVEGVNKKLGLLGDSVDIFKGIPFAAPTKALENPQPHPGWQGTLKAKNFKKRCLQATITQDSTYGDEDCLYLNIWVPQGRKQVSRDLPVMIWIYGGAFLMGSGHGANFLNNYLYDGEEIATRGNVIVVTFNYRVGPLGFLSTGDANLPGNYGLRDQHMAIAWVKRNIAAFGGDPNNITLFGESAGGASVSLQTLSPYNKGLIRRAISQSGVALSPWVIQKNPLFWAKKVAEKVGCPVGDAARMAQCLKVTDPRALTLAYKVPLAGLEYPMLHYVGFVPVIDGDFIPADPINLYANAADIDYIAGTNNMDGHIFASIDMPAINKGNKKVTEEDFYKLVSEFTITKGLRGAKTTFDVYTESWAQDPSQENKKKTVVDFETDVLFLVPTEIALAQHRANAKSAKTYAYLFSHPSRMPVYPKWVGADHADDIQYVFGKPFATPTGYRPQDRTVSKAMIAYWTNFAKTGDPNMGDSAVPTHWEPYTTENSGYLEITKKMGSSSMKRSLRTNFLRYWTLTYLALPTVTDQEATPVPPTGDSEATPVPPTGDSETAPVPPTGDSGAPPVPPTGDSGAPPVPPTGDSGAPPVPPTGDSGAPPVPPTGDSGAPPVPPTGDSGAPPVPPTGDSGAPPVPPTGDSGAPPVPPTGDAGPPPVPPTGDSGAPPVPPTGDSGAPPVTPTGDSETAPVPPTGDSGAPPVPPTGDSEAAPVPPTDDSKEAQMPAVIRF
As to the kind of experiment: Triolein hydrolysis by human pancreatic cholesterol esterase (100 kDa). It is filed as biochemical. To be noted: purified 100 kDa esterase, in the presence of 5 mM taurocholate.
Text: as §1

B1: Human pancreatic cholesterol esterase (100K form): 100,000 molecular weight form of human pancreatic cholesterol esterase purified over heparin agarose (protein, UniProt P19835 21-753, looked up)
Bile salt-activated lipase: AKLGAVYTEGGFVEGVNKKLGLLGDSVDIFKGIPFAAPTKALENPQPHPGWQGTLKAKNFKKRCLQATITQDSTYGDEDCLYLNIWVPQGRKQVSRDLPVMIWIYGGAFLMGSGHGANFLNNYLYDGEEIATRGNVIVVTFNYRVGPLGFLSTGDANLPGNYGLRDQHMAIAWVKRNIAAFGGDPNNITLFGESAGGASVSLQTLSPYNKGLIRRAISQSGVALSPWVIQKNPLFWAKKVAEKVGCPVGDAARMAQCLKVTDPRALTLAYKVPLAGLEYPMLHYVGFVPVIDGDFIPADPINLYANAADIDYIAGTNNMDGHIFASIDMPAINKGNKKVTEEDFYKLVSEFTITKGLRGAKTTFDVYTESWAQDPSQENKKKTVVDFETDVLFLVPTEIALAQHRANAKSAKTYAYLFSHPSRMPVYPKWVGADHADDIQYVFGKPFATPTGYRPQDRTVSKAMIAYWTNFAKTGDPNMGDSAVPTHWEPYTTENSGYLEITKKMGSSSMKRSLRTNFLRYWTLTYLALPTVTDQEATPVPPTGDSEATPVPPTGDSETAPVPPTGDSGAPPVPPTGDSGAPPVPPTGDSGAPPVPPTGDSGAPPVPPTGDSGAPPVPPTGDSGAPPVPPTGDSGAPPVPPTGDSGAPPVPPTGDAGPPPVPPTGDSGAPPVPPTGDSGAPPVTPTGDSETAPVPPTGDSGAPPVPPTGDSEAAPVPPTDDSKEAQMPAVIRF
As to B1, the “rate of cholesterol oleate cleavage relative to the 52 kDa triglyceride lipase” value in test [1] is reported as “at least 490 fold”. For the same molecule, the “specific binding to vesicles retained” value in test [2] came out at 72%. Also, the dissociation constant Kd (as a rule, the concentration at which binding is half-saturated) in test [3] amounted to 100 nM. Besides, the “rate of 3H-cholesterol uptake” value in test [4] is 1,800 dpm/hr/10^5 cells. In test [5], the “rate of triolein hydrolysis” value is on record as 1,970 nmol/hr/g pancreas.

The values are drawn from patent US5492822A, “Method for recovering purified 100,000 dalton molecular weight fraction of human pancreatic cholesterol esterase” (Lange, III; Louis G., priority 1995, dated 1996).
